{"source": "paper PMC4263446", "about": "(Molecular Biology of the Cell, 2014)", "proteins": {"B1": {"name": "Flag-CD73L (canonical ecto-5′-nucleotidase, long protein isoform of CD73) (enzyme, human, UniProt P21589-1 27-549, looked up)", "chain": "WELTILHTNDVHSRLEQTSEDSSKCVNASRCMGGVARLFTKVQQIRRAEPNVLLLDAGDQYQGTIWFTVYKGAEVAHFMNALRYDAMALGNHEFDNGVEGLIEPLLKEAKFPILSANIKAKGPLASQISGLYLPYKVLPVGDEVVGIVGYTSKETPFLSNPGTNLVFEDEITALQPEVDKLKTLNVNKIIALGHSGFEMDKLIAQKVRGVDVVVGGHSNTFLYTGNPPSKEVPAGKYPFIVTSDDGRKVPVVQAYAFGKYLGYLKIEFDERGNVISSHGNPILLNSSIPEDPSIKADINKWRIKLDNYSTQELGKTIVYLDGSSQSCRFRECNMGNLICDAMINNNLRHTDEMFWNHVSMCILNGGGIRSPIDERNNGTITWENLAAVLPFGGTFDLVQLKGSTLKKAFEHSVHRYGQSTGEFLQVGGIHVVYDLSRKPGDRVVKLDVLCTKCRVPSYDPLKMDEVYKVILPNFLANGGDGFQMIKDELLRHDSGDQDINVVSTYISKMKVIYPAVEGRIKFS", "modifications": "glycosylated (Asn-311/333/403)"}}, "target": "the molecule itself", "assay": "non-reducing SDS-PAGE", "data": [{"protein": "B1", "values": [{"measurement": "stoichiometry N", "result": 2}]}]}
